Laboratory results: article PMC6529012

B1: Tp0136 of Treponema pallidum subsp. pallidum SS14 strain, expressed on the surface of B. burgdorferi B314 (natural protein)
chain: CDFTGIFAAIQSEVPIKTPSIPGAIYGLVKAGSKLYATNGRLWEKELNGTGSWQKVSSSSVPTDSDKKVMSIATDGNTFVLACVPGTGVYKHCVNGAGSSSTGTTASPSTETCSQHATLVGGTSKPFWLVPGGTGNNGNCGCGGGGGGSSSSSSSCIHIWLVPGGTGNNGNCGCGGGGGGSSSSSSSCIHIKVENTDEQFLDMGEGYVVTTKHLYTKNGSSSAGPAQCPGGGGGGGSSGGGGSSEYTKASCSFSTPILASVSDGCYHYILTKEKVYCRKQDTASSAASSPAQCPSSPSSSSSSSTNAGCEVAHGVDDPLCLAIFKHNGCEYLLIGGSRGYGEIKLEANSSGTNGTCMRLKESNVHKSPGQWGESSPTPKASAEQYRGTVGRFAVQKIYVVEKNGGGNGVAAGGAGCPANASSSSGGTSSTQRPDLYAAVGESSDTYTGLWKFDTTTCSWNRE
B2: Tp0136 of Treponema pallidum subsp. pallidum Nichols (Seattle-Nichols) strain, expressed on the surface of B. burgdorferi B314 (natural protein)
chain: CDFTGIFAAIQSEVPIKTPSIPGAIYGLVKAGSKLYATNGRLWEKELNGTGSWQKVSSSSVPTDSDKKVMSIATDGNTFVLACVPGTGVYKHCVNGAGSSSTGTTASPSTETCSQHATLVGGTSKPFWLVPGGTGNNGNCGCGGGGGGSSSSSSSCIHIWLVPGGTGNNGNCGCGGGGGGSSSSSSSCIHIKVENTDEQFLDMGEGYVVTTKHLYTKNGSSSAGPAQCPGGGGGGGSSGGGGSSEYTKASCSFSTPILASVSDGCYHYILTKEKVYCRKQDTASSAASSPAQCPSSPSSSSSSSTNAGCEVAHGVDDPLCLAIFKHNGCEYLLIGGSRGYGEIKLEANSSGTNGTCMRLKESNVHKSPGQWGESSPTPKASAEQYRGTVGRFAVQKIYVVEKNGGGNGVAAGGAGCPANASSSSGGTSSTQRPDLYAAVGESSDTYTGLWKFDTTTCSWNRE

Key:
[1] = target: human foreskin fibroblast fibronectin (human)
[2] = target: human foreskin fibroblast fibronectin (human); remark: listed apart in the source

human foreskin fibroblast fibronectin (human), sequence (P02751 32-2477): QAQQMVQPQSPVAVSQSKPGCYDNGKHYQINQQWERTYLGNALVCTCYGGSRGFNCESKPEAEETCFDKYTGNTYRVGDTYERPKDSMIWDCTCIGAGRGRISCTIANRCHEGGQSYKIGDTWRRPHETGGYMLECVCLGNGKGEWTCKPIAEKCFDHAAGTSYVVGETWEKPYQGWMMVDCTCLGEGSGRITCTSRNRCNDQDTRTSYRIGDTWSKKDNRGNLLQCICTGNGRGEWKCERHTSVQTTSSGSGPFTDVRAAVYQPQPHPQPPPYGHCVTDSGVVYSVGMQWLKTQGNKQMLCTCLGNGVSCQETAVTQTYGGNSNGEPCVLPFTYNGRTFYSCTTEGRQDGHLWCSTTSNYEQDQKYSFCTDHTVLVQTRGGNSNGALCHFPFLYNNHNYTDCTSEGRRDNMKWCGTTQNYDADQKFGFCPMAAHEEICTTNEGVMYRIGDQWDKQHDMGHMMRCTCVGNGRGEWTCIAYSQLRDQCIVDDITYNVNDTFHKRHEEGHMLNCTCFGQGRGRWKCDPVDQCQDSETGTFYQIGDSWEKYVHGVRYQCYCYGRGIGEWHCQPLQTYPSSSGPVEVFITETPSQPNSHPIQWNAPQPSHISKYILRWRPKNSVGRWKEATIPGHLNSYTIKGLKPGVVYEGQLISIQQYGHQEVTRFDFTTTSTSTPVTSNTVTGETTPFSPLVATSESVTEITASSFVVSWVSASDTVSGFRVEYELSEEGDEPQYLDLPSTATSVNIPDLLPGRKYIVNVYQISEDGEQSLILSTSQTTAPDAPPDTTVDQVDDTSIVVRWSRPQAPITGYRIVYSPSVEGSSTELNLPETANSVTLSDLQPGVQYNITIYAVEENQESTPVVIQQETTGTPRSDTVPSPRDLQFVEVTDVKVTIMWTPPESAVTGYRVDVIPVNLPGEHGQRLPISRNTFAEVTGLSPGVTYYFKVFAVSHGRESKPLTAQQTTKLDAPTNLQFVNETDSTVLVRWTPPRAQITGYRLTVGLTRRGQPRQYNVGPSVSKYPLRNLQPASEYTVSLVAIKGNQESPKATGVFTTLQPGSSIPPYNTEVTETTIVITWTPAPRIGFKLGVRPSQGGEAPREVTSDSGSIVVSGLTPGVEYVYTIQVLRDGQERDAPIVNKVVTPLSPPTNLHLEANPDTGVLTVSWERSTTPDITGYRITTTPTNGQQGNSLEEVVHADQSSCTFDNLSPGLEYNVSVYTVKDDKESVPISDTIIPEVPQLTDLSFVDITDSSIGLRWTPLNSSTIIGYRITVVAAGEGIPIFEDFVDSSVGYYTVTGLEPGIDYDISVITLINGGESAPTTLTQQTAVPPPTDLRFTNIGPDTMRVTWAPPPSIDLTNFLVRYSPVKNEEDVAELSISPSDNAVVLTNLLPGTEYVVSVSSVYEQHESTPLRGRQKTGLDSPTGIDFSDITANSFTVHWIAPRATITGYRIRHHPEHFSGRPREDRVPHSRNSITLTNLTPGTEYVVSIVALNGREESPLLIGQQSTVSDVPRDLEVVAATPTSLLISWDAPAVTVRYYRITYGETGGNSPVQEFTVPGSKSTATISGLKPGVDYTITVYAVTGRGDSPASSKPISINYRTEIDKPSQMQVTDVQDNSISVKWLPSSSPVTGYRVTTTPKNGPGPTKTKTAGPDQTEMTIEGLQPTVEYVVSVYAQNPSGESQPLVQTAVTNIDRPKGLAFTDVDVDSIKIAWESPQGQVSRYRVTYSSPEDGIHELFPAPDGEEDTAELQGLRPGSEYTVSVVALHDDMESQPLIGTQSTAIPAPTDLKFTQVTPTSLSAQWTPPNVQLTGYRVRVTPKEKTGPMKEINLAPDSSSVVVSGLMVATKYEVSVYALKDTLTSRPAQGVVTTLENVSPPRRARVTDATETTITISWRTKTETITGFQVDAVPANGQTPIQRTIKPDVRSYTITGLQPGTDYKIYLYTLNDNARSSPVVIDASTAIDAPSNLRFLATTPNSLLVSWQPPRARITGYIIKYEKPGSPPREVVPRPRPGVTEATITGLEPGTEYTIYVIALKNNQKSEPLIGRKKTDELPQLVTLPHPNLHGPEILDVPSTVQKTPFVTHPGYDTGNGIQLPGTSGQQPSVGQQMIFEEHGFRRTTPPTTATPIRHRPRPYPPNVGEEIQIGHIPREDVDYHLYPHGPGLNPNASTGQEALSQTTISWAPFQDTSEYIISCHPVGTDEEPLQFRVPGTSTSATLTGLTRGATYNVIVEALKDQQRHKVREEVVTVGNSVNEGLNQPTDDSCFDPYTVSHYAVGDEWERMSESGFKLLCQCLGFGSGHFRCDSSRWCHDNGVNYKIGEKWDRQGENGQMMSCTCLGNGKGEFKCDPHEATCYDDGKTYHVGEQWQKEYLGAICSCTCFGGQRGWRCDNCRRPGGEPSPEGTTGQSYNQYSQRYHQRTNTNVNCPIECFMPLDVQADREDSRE

| Binder | reduction by FnbA-2 peptide (10 ug/well, preincubated with the monolayer) of adherence of radiolabelled B314 expressing Tp0136 to C6 (rat) glioma cells [1] [%] | reduction by FnbA-2 peptide (10 ug/well, preincubated with the monolayer) of adherence of radiolabelled B314 expressing Tp0136 to HEK293 cells [1] [%] | average percent binding of radiolabelled B314 expressing Tp0136 to Vero cells [2] [%] |
| --- | --- | --- | --- |
| B1 | 25.3 | 18.8 | 6 |
| B2 | 27.7 | 26.3 | 8 |
